Results reported in the supplement of paper PMC7125110.
± gives the standard error. This sample holds only a part of the variants without activity.

B1: glmS ribozyme (parent)
chain: AUAAAAGCGCCAGAACUACAGAAAUGUAGUUGACGAGGAGGAGGUUUAUCGAAUUUUCGGCGGAUGCCUCCAAA

Columns and labels:
Details in all cases: with glucosamine-6-phosphate
[1] = variants of: B1; experiment: self-cleavage kobs at 40 uM GlcN6P; higher = faster cleavage; RNA array
Method in brief: (§1)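 Tiles bearing barcoded ribozyme variants, transcribed in situ by E. coli RNA polymerase on sequenced MiSeq chips, were imaged over ~14 h at 37 °C using a hybridised Cy3 probe. Glucosamine-6-phosphate was supplied at 40 μM to 10 mM in HEPES/KCl/Mg(OAc)2 buffer. kobs came from one- or two-exponential decay fits to normalised per-tile medians, and weighted Michaelis–Menten fits then provided kcat and KM.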

[2] = variants of: B1; experiment: self-cleavage kobs at 160 uM GlcN6P; higher = faster cleavage; RNA array
Method in brief: as §1

[3] = variants of: B1; experiment: self-cleavage kobs at 640 uM GlcN6P; higher = faster cleavage; RNA array
Method in brief: as §1

[4] = variants of: B1; experiment: self-cleavage kobs at 2500 uM GlcN6P; higher = faster cleavage; RNA array
Method in brief: as §1

[5] = variants of: B1; experiment: self-cleavage kobs at 10000 uM GlcN6P; higher = faster cleavage; RNA array
Method in brief: as §1

Variant	self-cleavage kobs at 40 uM GlcN6P [1] [s⁻¹]	self-cleavage kobs at 160 uM GlcN6P [2] [s⁻¹]	self-cleavage kobs at 640 uM GlcN6P [3] [s⁻¹]	self-cleavage kobs at 2500 uM GlcN6P [4] [s⁻¹]	self-cleavage kobs at 10000 uM GlcN6P [5] [s⁻¹]
G7C U55A	< 1e-05	< 1e-05	< 1e-05	< 1e-05	
A15C G32C A64U C67A	< 1e-05				
C16U G40U U56A C71G	3.89e-05 ± 1.1e-05				0.00169 ± 0.00032
A42G C67G	0.000618 ± 0.00013	0.00112 ± 0.00024	0.00232 ± 0.00045	0.00814 ± 0.0014	0.0123 ± 0.0031
G38U C50U G51C U69A	8.35e-05 ± 3.9e-05				
G32C U47G C67G	0.000392 ± 0.00015				6.01e-05 ± 2.5e-05
G13C U30C A36G G41C C70A	< 1e-05	< 1e-05	< 1e-05	< 1e-05	< 1e-05
A6C A33U C58G G60U C71A	< 1e-05				
A6U G38U A48U A52G C68A U69G	7.26e-05 ± 3.3e-05				8.71e-05 ± 2.3e-05
C34G G43C	< 1e-05	< 1e-05	< 1e-05	< 1e-05	
G43A G51C U54C C71U	< 1e-05		< 1e-05	< 1e-05	
A33C A36G G40A	< 1e-05		< 1e-05	< 1e-05	< 1e-05
C11G G41C	< 1e-05	< 1e-05	< 1e-05	< 1e-05	
G37U G60C	< 1e-05	< 1e-05	< 1e-05		
G7U G29C G43U G51A	< 1e-05				< 1e-05
A14U A33U C34G G35C U69A	3.35e-05 ± 1e-05				7.09e-05 ± 1.3e-05
G37U G40A G59U	< 1e-05			< 1e-05	< 1e-05
U31G U55G	0.000486 ± 0.0001	0.000859 ± 0.00014	0.00296 ± 0.00071	0.0116 ± 0.0027	0.0152 ± 0.0067
C11A U49G C67G	4.47e-05 ± 1.8e-05				
C10U G44A G51U	< 1e-05				
C10A G38C G60U C71U	< 1e-05				
A33C G43A U47G	< 1e-05	< 1e-05	< 1e-05	< 1e-05	
C8A U47C C58G G66U	< 1e-05			< 1e-05	< 1e-05
G59A G63C	< 1e-05	< 1e-05	< 1e-05	< 1e-05	

Variant	self-cleavage kobs at 40 uM GlcN6P [1] [s⁻¹]	self-cleavage kobs at 160 uM GlcN6P [2] [s⁻¹]	self-cleavage kobs at 640 uM GlcN6P [3] [s⁻¹]	self-cleavage kobs at 2500 uM GlcN6P [4] [s⁻¹]	self-cleavage kobs at 10000 uM GlcN6P [5] [s⁻¹]
A36U C70A	3.96e-05 ± 1e-05	4.33e-05 ± 1.3e-05	0.000143 ± 3.1e-05		2.74e-05 ± 7.6e-06
A14U G38A U45G G63C	< 1e-05				
G9A A42C C71G	< 1e-05				
G7U A33G U55A	< 1e-05				< 1e-05
U31C G60A	< 1e-05		< 1e-05		< 1e-05
G9C C67G	< 1e-05	< 1e-05	< 1e-05	< 1e-05	< 1e-05
G32U A52G C68G	0.000277 ± 9.2e-05				0.000398 ± 9.5e-05
A14U A39G G44A C50A C71A	< 1e-05			< 1e-05	< 1e-05
A6C U49G C67U	< 1e-05			< 1e-05	
G9A C11G	< 1e-05	< 1e-05	< 1e-05	< 1e-05	< 1e-05
G9U G43C U46G C67A	< 1e-05				
G40C A42C	< 1e-05	< 1e-05	< 1e-05	< 1e-05	< 1e-05
A6U C50A	< 1e-05	< 1e-05	< 1e-05		
C16U U54C	0.000813 ± 0.00013	0.00146 ± 0.00024	0.00641 ± 0.001	0.00606 ± 0.0012	0.0254 ± 0.0047
A48U G62C C70U	< 1e-05		< 1e-05	< 1e-05	< 1e-05
U54G G62C	< 1e-05	< 1e-05	< 1e-05	< 1e-05	< 1e-05
U54G G63A A64U C70U	< 1e-05				
U45G A52C	< 1e-05				
G13U G41U U46G	< 1e-05				
A6G C8G A39C U55C C70A	< 1e-05				< 1e-05
A14G G44U U49C	< 1e-05				
A36C G37A C58G	< 1e-05			< 1e-05	< 1e-05
G13C A33G A48C	< 1e-05			< 1e-05	
